From patent publication US20040087767

Molecular target: A-183-CS-Z-fusion peptide, P38507

B1: Factor VIIa (protein)
chain: ANAFLEELRPGSLERECKEEQCSFEEAREIFKDAERTKLFWISYSDGDQCASSPCQNGGSCKDQLQSYICFCLPAFEGRNCETHKDDQLICVNENGGCEQYCSDHTGTKRSCRCHEGYSLLADGVSCTPTVEYPCGKIPILEKRNASKPQGRIVGGKVCPKGECPWQVLLLVNGAQLCGGTLINTIWVVSAAHCFDKIKNWRNLIAVLGEHDLSEHDGDEQSRRVAQVIIPSTYVPGTTNHDIALLRLHQPVVLTDHVVPLCLPERTFSERTLAFVRFSLVSGWGQLLDRGATALELMVLNVPRLMTQDCLQQSRKVGDSPNITEYMFCAGYSDGSKDSCKGDSGGPHATHYRGTWYLTGIVSWGQGCATVGHFGVYTRVSQYIEWLQKLMRSEPRPGVLLRAPFP
B1 was tested, and the “cleavage of the fusion peptide by FVIIa (HPLC, SDS-PAGE, N-terminal sequencing, mass spectrometry)” value was “the fusion peptide was cleaved after the putative P1 arginine only under enzymatically favorable conditions (sTF, pH 8.5); no cleavage was observed at pH 6.0 and the absence of sTF”.
